Each block holds one binder with its values, some of them ahead of it.
Experiments:
[1] = target: human CD137 on the cell surface (human, UniProt Q07011 24-255); assay: cell-based or functional assay
human Nectin-4 = target: T1, human Nectin-4 (human, UniProt Q96NY8 32-510); assay: immunofluorescence cell binding, CHO cells expressing human Nectin 4, 10 µg/ml per the text
T1 construct: Expressed on CHO cells; also called CHO-Nectin 4
T1 sequence: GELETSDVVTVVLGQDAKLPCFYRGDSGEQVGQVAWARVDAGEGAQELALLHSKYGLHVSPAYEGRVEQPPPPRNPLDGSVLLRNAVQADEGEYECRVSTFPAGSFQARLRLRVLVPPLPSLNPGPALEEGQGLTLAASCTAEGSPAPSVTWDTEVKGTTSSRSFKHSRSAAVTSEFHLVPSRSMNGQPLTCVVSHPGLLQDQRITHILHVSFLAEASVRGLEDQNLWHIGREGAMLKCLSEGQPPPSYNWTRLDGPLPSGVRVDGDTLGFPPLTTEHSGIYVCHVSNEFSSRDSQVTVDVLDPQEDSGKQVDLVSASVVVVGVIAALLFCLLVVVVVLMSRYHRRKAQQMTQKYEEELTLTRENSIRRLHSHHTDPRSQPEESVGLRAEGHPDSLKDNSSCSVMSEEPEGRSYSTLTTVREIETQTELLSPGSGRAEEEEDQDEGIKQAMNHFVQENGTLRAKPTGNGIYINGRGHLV
Procedure: Bispecific Nectin-4/CD137 binding proteins were generated, produced, and purified as described in Example 4. To examine the binding activity of the BsAbs 1925Ab1, 1925Ab2 and 1925Ab3 to Nectin 4, CHO cells expressing human Nectin 4 were used in an immunofluorescence binding assay. The cells were cultured in F12K media with 10% FBS. On the day of the experiment, the cells were collected, washed, and stained with the binding proteins at 4° C. for 2 hours, followed by fixing cells with paraformaldehyde for 15 minutes at room temperature. The disclosed antibodies 1925Ab1, 1925Ab2 and 1925Ab3 are bispecific antibodies that bind to both Nectin-4 and CD137. Monospecific antibody 1925Ab4 (parental murine antibody) only binds to Nectin-4 and is used as a control antibody. The fixed cells were then washed with PBS three times, followed by staining the cells at room temperature for 1 hour with Alexa Fluor® 488 Goat Anti-Human IgG antibody (Invitrogen, Cat #: A-11013) for detection. The binding signal was assessed by quantifying the fluorescence intensity using iQue Screener PLUS (Sartorius, MI).

Sequence of human CD137 on the cell surface (Q07011 24-255): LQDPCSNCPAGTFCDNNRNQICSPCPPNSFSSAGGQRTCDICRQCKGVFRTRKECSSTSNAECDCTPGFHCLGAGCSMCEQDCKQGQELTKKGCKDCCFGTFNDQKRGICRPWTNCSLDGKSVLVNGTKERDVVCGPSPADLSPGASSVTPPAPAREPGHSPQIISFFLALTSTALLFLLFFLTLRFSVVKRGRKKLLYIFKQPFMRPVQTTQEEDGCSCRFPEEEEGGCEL

- EC50 of CD137 signaling (NFKB-luc, Jurkat reporter cells with target cells) [1]: 0.08 nM
B1: 1925Ab2 (bispecific antibody, human IgG1, kappa)
heavy: not shown
light: DIQMTQSPSSLSASVGDRVTITCKASQSVNNDVAWYQQKPGKAPKLLIYYASNRDTGVPSRFSGSGSGTDFTLTISSLQPEDFATYYCQQDYSSPYTFGQGTKLEIKRTVAAPSVFIFPPSDEQLKSGTASVVCLLNNFYPREAKVQWKVDNALQSGNSQESVTEQDSKDSTYSLSSTLTLSKADYEKHKVYACEVTHQGLSSPVTKSFNRGECGGGGSGGGGSGGGGSQVQLVESGGGVVQPGRSLRLSCAASGFTFSNYGMHWVRQAPGKCLEWVAIIWYDGINKYYADSVKGRFTISRDNSKNTLYLQMNSLKAEDTAVYYCARDQDYDILTGYYKEDYFDFWGQGTLVTVSSGGGGSGGGGSGGGGSGGGGSSYELTQPPSVSVSPGQTARITCSGDALPKKYAYWYQQKSGQAPVLVIYEDSKRPSGIPERFSGSSSGTMATLTISGAQVEDEADYYCYSTDSSGNRVFGCGTKLTVL

- EC50 of CD137 signaling (NFKB-luc, Jurkat reporter cells with target cells) [1]: 0.027 nM
B2: 1925Ab1 (bispecific antibody, human IgG1, kappa, L234A L235A)
heavy: not shown
light: DIQMTQSPSSLSASVGDRVTITCKASQSVNNDVAWYQQKPGKAPKLLIYYASNRDTGVPSRFSGSGSGTDFTLTISSLQPEDFATYYCQQDYSSPYTFGQGTKLEIKRTVAAPSVFIFPPSDEQLKSGTASVVCLLNNFYPREAKVQWKVDNALQSGNSQESVTEQDSKDSTYSLSSTLTLSKADYEKHKVYACEVTHQGLSSPVTKSFNRGEC

- EC50 of CD137 signaling (NFKB-luc, Jurkat reporter cells co-cultured with NUGC4 cells) [1]: 0.047 nM
B4: 1901Ab2 (bispecific antibody, human IgG1, kappa, L234A L235A)
heavy: not shown
light: DIQLTQSPSFLSASVGDRVPITCRASQGISNFLAWYQQKPGKAPELLIHSASTLQSGVPSRFSGSGSGTEFTLTISNLQPQDFATYYCQQVNSYPLTFGGGTKVEIKRTVAAPSVFIFPPSDEQLKSGTASVVCLLNNFYPREAKVQWKVDNALQSGNSQESVTEQDSKDSTYSLSSTLTLSKADYEKHKVYACEVTHQGLSSPVTKSFNRGEC

- binding result (human Nectin-4): binds
B8: 1925Ab4 (antibody, human IgG1, kappa, V domains shown)
VH: QVQLQQSGPELVKPGASVRISCKASGYTFTTYYIHWVKQRPGQGLEWIGWIYPGNVNTKYTENFKDKATLTADKSSSTAYMQLSSLTSEDSAVYFCARGLYYFDFWGQGTTLTVSS
VL: SIVMTQTPKFLLVSAGDRVTITCKASQSVNNDVAWYQQKPGQSPKLLIYYASNRDTGVPDRFTGSGFGTDFTFTISSVQAEDLAVYFCQQDYSSPYTFGGGTKLEIKR
notes: Parental murine anti-Nectin-4 antibody; also called parental murine monoclonal antibody; monospecific anti-Nectin-4 control antibody

Second part, the binder before the results:

B3: 1925Ab3 (bispecific antibody, human IgG1, kappa, L234A L235A)
heavy: not shown
light: B2 light
- EC50 of CD137 signaling (NFKB-luc, Jurkat reporter cells with target cells) [1]: 0.049 nM

B5: 1912Ab4 (bispecific antibody)
heavy: not shown
light: AIQLTQSPSSLSASVGDRVTITCRASQGINSWLAWYQQKPEKAPKSLIYAASSLQSGVPSRFSGSGSGTDFTLTISSLQPEDFATYYCQQYNFYPYTFGQGTKLEIIRTVAAPSVFIFPPSDEQLKSGTASVVCLLNNFYPREAKVQWKVDNALQSGNSQESVTEQDSKDSTYSLSSTLTLSKADYEKHKVYACEVTHQGLSSPVTKSFNRGEC
- EC50 of CD137 signaling (NFKB-Luc, Jurkat reporter cells co-cultured with NEC8 WT cells) [1]: 0.18 nM

B6: 1901Ab3 (bispecific antibody, human IgG1, kappa, L234A L235A)
heavy: not shown
light: DIQLTQSPSFLSASVGDRVPITCRASQGISNFLAWYQQKPGKAPELLIHSASTLQSGVPSRFSGSGSGTEFTLTISNLQPQDFATYYCQQVNSYPLTFGGGTKVEIKRTVAAPSVFIFPPSDEQLKSGTASVVCLLNNFYPREAKVQWKVDNALQSGNSQESVTEQDSKDSTYSLSSTLTLSKADYEKHKVYACEVTHQGLSSPVTKSFNRGECGGGGSGGGGSGGGGSQVQLVESGGGVVQPGRSLRLSCAASGFTFSNYGMHWVRQAPGKCLEWVAIIWYDGINKYYADSVKGRFTISRDNSKNTLYLQMNSLKAEDTAVYYCARDQDYDILTGYYKEDYFDFWGQGTLVTVSSGGGGSGGGGSGGGGSGGGGSSYELTQPPSVSVSPGQTARITCSGDALPKKYAYWYQQKSGQAPVLVIYEDSKRPSGIPERFSGSSSGTMATLTISGAQVEDEADYYCYSTDSSGNRVFGCGTKLTVL
- EC50 of CD137 signaling (NFKB-luc, Jurkat reporter cells co-cultured with NUGC4 cells) [1]: 0.1 nM

B7: 1912Ab3 (bispecific antibody, human IgG1, kappa, L234A L235A)
heavy: not shown
light: DIQLTQSPSFLSASVGDRVTITCRASQGISSYLAWYQQKPGKAPKLLIYAASTLQSGVPSRFSGSGSGTEFTLAVSSLQPEDFATYYCQQLNSYPYTFGQGTKLEIKRTVAAPSVFIFPPSDEQLKSGTASVVCLLNNFYPREAKVQWKVDNALQSGNSQESVTEQDSKDSTYSLSSTLTLSKADYEKHKVYACEVTHQGLSSPVTKSFNRGEC
- EC50 of CD137 signaling (NFKB-Luc, Jurkat reporter cells co-cultured with NEC8 WT cells) [1]: 0.2 nM
